{"source": "patent US20170183403A1", "binders": {"B1": {"name": "NARA1 (antibody, mouse IgG2a, kappa)", "heavy": "QVQLQQSGAELVRPGTSVKVSCKASGYAFTNYLIEWVKQRPGQGLEWIGVINPGSGGTNYNEKFKGKATLTADKSSSTAYMQLSSLTSDDSAVYFCARWRGDGYYAYFDVWGAGTTVTVSSAKTTAPSVYPLAPVCGDTTGSSVTLGCLVKGYFPEPVTLTWNSGSLSSGVHTFPAVLQSDLYTLSSSVTVTSSTWPSQSITCNVAHPASSTKVDKKIEPRGPTIKPCPPCKCPAPNLLGGPSVFIFPPKIKDVLMISLSPIVTCVVVDVSEDDPDVQISWFVNNVEVHTAQTQTHREDYNSTLRVVSALPIQHQDWMSGKEFKCKVNNKDLPAPIERTISKPKGSVRAPQVYVLPPPEEEMTKKQVTLTCMVTDFMPEDIYVEWTNNGKTELNYKNTEPVLDSDGSYFMYSKLRVEKKNWVERNSYSCSVVHEGLHNHHTTKSFSRTPGK", "light": "not shown"}, "B2": {"name": "MAB602 (antibody, from another filing, IgG2a, V domains shown)", "VH": "EVQLQESGPGLVAPSQSLSITCTVSGFSLTNYDISWIRQPPGKGLEWLGVIWTGGGTNYNSGFMSRLSITKDNSKSQVFLKMNSLQTDDTAIYYCVRQGRTPYWGQGTLVTVSA", "VL": "DIQVTQSPSSLSVSLGDRVTITCKASKDIYNRLAWYQQKPGNAPRLLISGATSLETGVPSRFSGSGSGKDYTLTITSLQTEDVATYYCQQFWGTPYTFGGGTKLEIKR"}}, "key": {"Reference peptide no. 54 [1]": {"target": "Reference peptide no. 54", "experiment": "peptide microarray (RepliTope), Ala mutagenesis set"}, "Reference peptide no. 53 [2]": {"target": "Reference peptide no. 53", "experiment": "peptide microarray (RepliTope), Ala mutagenesis set"}, "Reference peptide no. 44": {"target": "T1, Reference peptide no. 44", "T1 sequence (peptide)": "PKLTRMLTAKFYMPK", "experiment": "peptide microarray (RepliTope), Ala mutagenesis set"}, "Reference peptide no. 49": {"target": "T2, Reference peptide no. 49", "T2 sequence (peptide)": "TRMLTFKFAMPKKAT", "experiment": "peptide microarray (RepliTope), Ala mutagenesis set"}, "Reference peptide no. 52": {"target": "T3, Reference peptide no. 52", "T3 sequence (peptide)": "YKNPKLTRMLTAKFA", "experiment": "peptide microarray (RepliTope), Ala mutagenesis set"}, "Reference peptide no. 53 [3]": {"target": "Reference peptide no. 53", "experiment": "peptide microarray (RepliTope), Ala mutagenesis set", "remark": "listed apart in the source"}, "Reference peptide no. 45": {"target": "T4, Reference peptide no. 45", "T4 sequence (peptide)": "TRMLTAKFYMPKKAT", "experiment": "peptide microarray (RepliTope), Ala mutagenesis set"}, "Reference peptide no. 48": {"target": "T5, Reference peptide no. 48", "T5 sequence (peptide)": "PKLTRMLTFKFAMPK", "experiment": "peptide microarray (RepliTope), Ala mutagenesis set"}, "Reference peptide no. 43": {"target": "T6, Reference peptide no. 43", "T6 sequence (peptide)": "YKNPKLTRMLTAKFY", "experiment": "peptide microarray (RepliTope), Ala mutagenesis set"}, "Reference peptide no. 42": {"target": "T7, Reference peptide no. 42", "T7 sequence (peptide)": "INNYKNPKLTRMLTA", "experiment": "peptide microarray (RepliTope), Ala mutagenesis set"}, "Reference peptide no. 54 [4]": {"target": "Reference peptide no. 54", "experiment": "peptide microarray (RepliTope), Ala mutagenesis set", "remark": "listed apart in the source"}, "Reference peptide no. 12 [5]": {"target": "T8, Reference peptide no. 12", "T8 sequence (peptide)": "PKLTRMLTFKFYMPK", "experiment": "peptide microarray (RepliTope), Ala mutagenesis set"}, "Reference peptide no. 47": {"target": "T9, Reference peptide no. 47", "T9 sequence (peptide)": "YKNPKLTRMLTFKFA", "experiment": "peptide microarray (RepliTope), Ala mutagenesis set"}, "Reference peptide no. 10 [6]": {"target": "T10, Reference peptide no. 10", "T10 sequence (peptide)": "INNYKNPKLTRMLTF", "experiment": "peptide microarray (RepliTope), Ala mutagenesis set"}, "Reference peptide no. 13 [7]": {"target": "T11, Reference peptide no. 13", "T11 sequence (peptide)": "TRMLTFKFYMPKKAT", "experiment": "peptide microarray (RepliTope), Ala mutagenesis set"}, "Reference peptide no. 11 [8]": {"target": "T12, Reference peptide no. 11", "T12 sequence (peptide)": "YKNPKLTRMLTFKFY", "experiment": "peptide microarray (RepliTope), Ala mutagenesis set"}, "[9]": {"target": "human interleukin-2 (human) (UniProt P60568)", "sequence (P60568 21-153 limits assumed)": "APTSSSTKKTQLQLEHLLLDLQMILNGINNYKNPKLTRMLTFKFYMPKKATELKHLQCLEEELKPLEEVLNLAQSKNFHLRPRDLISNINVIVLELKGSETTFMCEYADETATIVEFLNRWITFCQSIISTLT", "experiment": "SPR, antibody amine-coupled on GLM chip, hIL-2 in solution"}, "Reference peptide no. 26": {"target": "T13, Reference peptide no. 26", "T13 sequence (peptide)": "KNFHLRPRDLISNIN", "experiment": "peptide microarray (RepliTope)"}, "Reference peptide no. 12 [10]": {"target": "T8, Reference peptide no. 12", "experiment": "peptide microarray (RepliTope)"}, "Reference peptide no. 24": {"target": "T14, Reference peptide no. 24", "T14 sequence (peptide)": "LNLAQSKNFHLRPRD", "experiment": "peptide microarray (RepliTope)"}, "Reference peptide no. 23": {"target": "T15, Reference peptide no. 23", "T15 sequence (peptide)": "EEVLNLAQSKNFHLR", "experiment": "peptide microarray (RepliTope)"}, "Reference peptide no. 10 [11]": {"target": "T10, Reference peptide no. 10", "experiment": "peptide microarray (RepliTope)"}, "Reference peptide no. 13 [12]": {"target": "T11, Reference peptide no. 13", "experiment": "peptide microarray (RepliTope)"}, "Reference peptide no. 11 [13]": {"target": "T12, Reference peptide no. 11", "experiment": "peptide microarray (RepliTope)"}, "Reference peptide no. 25": {"target": "T16, Reference peptide no. 25", "T16 sequence (peptide)": "AQSKNFHLRPRDLIS", "experiment": "peptide microarray (RepliTope)"}, "Reference peptide no. 22": {"target": "T17, Reference peptide no. 22", "T17 sequence (peptide)": "KPLEEVLNLAQSKNF", "experiment": "peptide microarray (RepliTope)"}, "[14]": {"target": "human interleukin-2 (human) (UniProt P60568)", "experiment": "sandwich ELISA, biotinylated MAB602 on hIL-2 captured by coated 5344, no competitor"}, "murine IL-2 (mouse)": {"target": "murine IL-2 (mouse) (UniProt P04351)", "sequence (P04351 21-169 limits assumed)": "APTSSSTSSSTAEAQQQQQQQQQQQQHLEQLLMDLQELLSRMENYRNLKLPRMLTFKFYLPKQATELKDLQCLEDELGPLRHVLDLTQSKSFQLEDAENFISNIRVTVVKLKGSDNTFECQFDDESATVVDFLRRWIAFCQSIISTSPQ", "experiment": "SPR, MAB602 amine-coupled on chip, mIL-2 at 1 nM or more"}}, "note": "Where two headings read alike, the source gives them in different places."}
{"binder": "B1", "values": [{"measurement": "signal intensity after subtraction of control signal", "setting": "Reference peptide no. 54 [1]", "value": 0, "unit": "AU"}, {"measurement": "signal intensity after subtraction of control signal", "setting": "Reference peptide no. 53 [2]", "value": 24, "unit": "AU"}]}
{"binder": "B2", "values": [{"measurement": "signal intensity after subtraction of control signal", "setting": "Reference peptide no. 44", "value": 5030, "unit": "AU"}, {"measurement": "signal intensity after subtraction of control signal", "setting": "Reference peptide no. 49", "value": 3020, "unit": "AU"}, {"measurement": "signal intensity after subtraction of control signal", "setting": "Reference peptide no. 52", "value": 13100, "unit": "AU"}, {"measurement": "signal intensity after subtraction of control signal", "setting": "Reference peptide no. 53 [3]", "value": 0, "unit": "AU"}, {"measurement": "signal intensity after subtraction of control signal", "setting": "Reference peptide no. 45", "value": 0, "unit": "AU"}, {"measurement": "signal intensity after subtraction of control signal", "setting": "Reference peptide no. 48", "value": 13400, "unit": "AU"}, {"measurement": "signal intensity after subtraction of control signal", "setting": "Reference peptide no. 43", "value": 42800, "unit": "AU"}, {"measurement": "signal intensity after subtraction of control signal", "setting": "Reference peptide no. 42", "value": 246, "unit": "AU"}, {"measurement": "signal intensity after subtraction of control signal", "setting": "Reference peptide no. 54 [4]", "value": 0, "unit": "AU"}, {"measurement": "signal intensity after subtraction of control signal", "setting": "Reference peptide no. 12 [5]", "value": 28800, "unit": "AU"}, {"measurement": "signal intensity after subtraction of control signal", "setting": "Reference peptide no. 47", "value": 21400, "unit": "AU"}, {"measurement": "signal intensity after subtraction of control signal", "setting": "Reference peptide no. 10 [6]", "value": 46000, "unit": "AU"}, {"measurement": "signal intensity after subtraction of control signal", "setting": "Reference peptide no. 13 [7]", "value": 5250, "unit": "AU"}, {"measurement": "signal intensity after subtraction of control signal", "setting": "Reference peptide no. 11 [8]", "value": 49700, "unit": "AU"}, {"measurement": "Kd", "setting": "[9]", "value": 9.7, "unit": "nM"}, {"measurement": "koff", "setting": "[9]", "value": 0.000494, "unit": "s⁻¹"}, {"measurement": "signal intensity after subtraction of control signal", "setting": "Reference peptide no. 26", "value": 7510, "unit": "AU"}, {"measurement": "signal intensity after subtraction of control signal", "setting": "Reference peptide no. 12 [10]", "value": 28800, "unit": "AU"}, {"measurement": "signal intensity after subtraction of control signal", "setting": "Reference peptide no. 24", "value": 3290, "unit": "AU"}, {"measurement": "signal intensity after subtraction of control signal", "setting": "Reference peptide no. 23", "value": 13300, "unit": "AU"}, {"measurement": "signal intensity after subtraction of control signal", "setting": "Reference peptide no. 10 [11]", "value": 46000, "unit": "AU"}, {"measurement": "signal intensity after subtraction of control signal", "setting": "Reference peptide no. 13 [12]", "value": 5250, "unit": "AU"}, {"measurement": "signal intensity after subtraction of control signal", "setting": "Reference peptide no. 11 [13]", "value": 49700, "unit": "AU"}, {"measurement": "signal intensity after subtraction of control signal", "setting": "Reference peptide no. 25", "value": 5220, "unit": "AU"}, {"measurement": "signal intensity after subtraction of control signal", "setting": "Reference peptide no. 22", "value": 5000, "unit": "AU"}, {"measurement": "absorbance (OD450)", "setting": "[14]", "value": 1.1, "unit": "OD450"}, {"measurement": "response units (RU)", "setting": "murine IL-2 (mouse)", "value": "> 10", "unit": "RU"}]}
